Measurements reported in patent EP0730609B1 (SMITHKLINE BEECHAM CORPORATION, dated 2005).

Key:
[1] = molecular target: T1, recombinant human IL4 (E. coli, non-glycosylated) (human, UniProt P05112 25-153); assay: cell-based or functional assay
T1 sequence (looked up): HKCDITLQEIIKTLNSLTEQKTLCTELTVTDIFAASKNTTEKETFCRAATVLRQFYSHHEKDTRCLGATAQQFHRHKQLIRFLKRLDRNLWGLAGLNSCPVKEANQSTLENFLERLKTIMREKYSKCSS

[2] = molecular target: T1, recombinant human IL4 (E. coli, …); assay: titration microcalorimetry, measured at 60°C and calculated for 25°C, pH 7.4, 150 mM NaCl
[3] = molecular target: T1, recombinant human IL4 (E. coli, …); assay: titration microcalorimetry, 25°C, pH 7.4, 150 mM NaCl

B cell (inhibition of IL4-stimulated B lymphocyte proliferation), IC50 [1]: 47 pM
CD23 induction (inhibition of IL4-induced CD23 expression on B lymphocytes), IC50 [1]: 333 pM
IgE synthesis (inhibition of IL4-driven IgE secretion), IC50 [1]: 54 pM
T cell (inhibition of IL4-stimulated T lymphocyte proliferation), IC50 [1]: 44 pM
Kd [2]: 11 pM
-TΔS [3]: 8.2 kcal/mol IL4
ΔG [3]: -13.6 kcal/mol IL4
ΔH [3]: -21.8 kcal/mol IL4
B1: humanized 3B9 (IgG1) (antibody, V domains shown)
VH: QVTLRESGPALVKPTQTLTLTCTFSGFSLSTSGMGVSWIRQPPGKGLEWLAHIYWDDDKRYNPSLKSRLTISKDTSRNQVVLTMTNMDPVDTATYYCARRETVFYWYFDVWGRGTPVTVSS
VL: IVMTQSPDSLAVSLGERATINCKASQSVDYDGDSYMNWYQQKPGQPPKLLIYAASNLESGVPDRFSGSGSGTDFTLTISSLQAEDVAVYYCQQSNEDPPRFGGGTKVEIKR
